According to patent US9724426B2, “Agents, uses and methods” (AFFINICON APS, priority 2009, dated 2017):

Assays:
[1] = molecular target: recombinant CD163 immobilized on a Biacore chip (Homo sapiens, UniProt Q86VB7); experiment: Surface plasmon resonance (Biacore) analysis of mAb binding to immobilized CD163; details: 5 μg/ml
Protocol: SPR analysis of the binding of mAbs to CD163 was carried out on a Biacore 2000 instrument (Biacore, Uppsala, Sweden). The Biacore sensor chips (type CM5) were activated with a 1:1 mixture of 0.2 M N-ethyl-N′-(3-dimethylaminopropyl) carbodiimide and 0.05 M N-hydroxysuccimide in water. Purified recombinant CD163 were immobilized in 10 mM sodium acetate, pH 4.0, and the remaining binding sites were blocked with 1 M ethanolamine, pH 8.5. The SPR signal generated from immobilized recombinant CD163 proteins corresponded to 40-70 fmol of protein/mm^2. Sensorgrams were generated using mAb concentrations ranging from 5-100 nM. The flow cells were regenerated with 1.6 M glycine-HCl, pH 3. The running buffer used for the experiment was either CaHBS 10 mM Hepes, 150 mM NaCl, 3.0 mM CaCl2, 1.0 mM EGTA, and 0.005% Tween 20, pH 7.4. or 10 mM Hepes, 150 mM NaCl, 3.0 mM EDTA, and 0.005% Tween 20, pH 7.4, mAb samples were dissolved in the same buffer as the running buffer used. All binding data were analyzed using the Biamolecular Interaction Analysis evaluation program version 3.1.
SPR analysis of the binding of mAbs to CD163 was carried out on a Biacore 2000 instrument (Biacore, Uppsala, Sweden). […] All binding data were analyzed using the Biamolecular Interaction Analysis evaluation program version 3.1.

[2] = tested on: LPS induction of TNF production in human in vitro matured macrophages; experiment: Dexamethasone treatment of cultivated pro-inflammatory macrophages, soluble TNF by cytometry bead array; type: cell-based; details: without dexamethasone; results not shown
Protocol: Monocytes were resuspended in RMPI 1640 medium (Sigma-Aldrich, Brondby, Denmark) containing 20% fetal calf serum (FCS) supplemented with 100 ng/ml M-CSF (GenScript Corporation, New Jersey, USA) and pencillin/streptomycin (pen/strep) for 7 days. The first 3 days in Tissue Culture Flasks at 37° C. and 5% CO2. The monocytes were then detached from the flask by flushing and scraping. The monocytes were divided into smaller portions and further grown for four days. […] cells per well were grown in 96 well tissue culture plates for TNF CBA use.
Subsequently, the macrophages were activated in RMPI 1640 containing 5% FCS, 1 ug/ml lipopolysaccaride (LPS) (Sigma-Aldrich, Brøondby, Denmark) and 20 ng/ml INF-gamma (Genscript Corporation, New Jersey, USA) for 18 hours making them pro-inflammatory.
The pro-inflammatory macrophages were stimulated with RMPI160, 5% FCS, 1 ug/ml LPS and 20 ng/ml INF-gamma containing either dexamethasone, Ab-dexamethasone or no drug.
To detect the change in soluble TNF-alpha concentration we used the Cytometry Bead Array Kit (BD Biosciences, New Jersey, USA). The media from the in vitro stimulated macrophages (described earlier) grown in 96 well tissue culture plates were analyzed according to the manufacturer's protocol.

recombinant CD163 immobilized on a Biacore chip, sequence (Q86VB7 42-1156): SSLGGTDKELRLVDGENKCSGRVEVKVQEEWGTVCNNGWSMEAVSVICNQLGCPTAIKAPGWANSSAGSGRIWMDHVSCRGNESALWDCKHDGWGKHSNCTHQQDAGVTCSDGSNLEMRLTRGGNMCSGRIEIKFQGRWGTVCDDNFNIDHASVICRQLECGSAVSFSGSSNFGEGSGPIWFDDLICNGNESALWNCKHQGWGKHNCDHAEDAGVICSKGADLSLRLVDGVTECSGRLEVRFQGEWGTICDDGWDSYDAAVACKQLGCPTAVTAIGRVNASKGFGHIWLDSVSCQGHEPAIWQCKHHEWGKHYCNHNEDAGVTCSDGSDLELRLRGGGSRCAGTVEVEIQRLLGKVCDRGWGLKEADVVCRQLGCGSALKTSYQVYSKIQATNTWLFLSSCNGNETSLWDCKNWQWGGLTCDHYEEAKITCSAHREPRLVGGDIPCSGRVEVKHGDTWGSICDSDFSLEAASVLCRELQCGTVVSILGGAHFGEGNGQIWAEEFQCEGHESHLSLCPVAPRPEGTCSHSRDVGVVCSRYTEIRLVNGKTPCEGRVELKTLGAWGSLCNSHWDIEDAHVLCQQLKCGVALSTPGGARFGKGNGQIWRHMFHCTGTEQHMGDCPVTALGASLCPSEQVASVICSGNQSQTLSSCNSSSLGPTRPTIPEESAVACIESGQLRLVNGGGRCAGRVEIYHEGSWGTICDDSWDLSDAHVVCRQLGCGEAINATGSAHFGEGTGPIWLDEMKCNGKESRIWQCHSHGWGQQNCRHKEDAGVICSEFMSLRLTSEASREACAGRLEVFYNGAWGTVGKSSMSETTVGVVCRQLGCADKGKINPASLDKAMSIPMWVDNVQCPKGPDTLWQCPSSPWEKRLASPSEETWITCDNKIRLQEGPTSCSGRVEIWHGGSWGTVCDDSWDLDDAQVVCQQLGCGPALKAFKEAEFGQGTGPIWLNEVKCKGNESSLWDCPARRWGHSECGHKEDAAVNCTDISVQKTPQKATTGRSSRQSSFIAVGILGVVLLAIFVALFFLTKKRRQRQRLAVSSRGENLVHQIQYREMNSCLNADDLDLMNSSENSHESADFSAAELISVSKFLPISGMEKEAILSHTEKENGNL

B1: Mac2-158: murine anti-human CD163 mAb binding SRCR domain 1; VH SEQ ID NO:20, VL SEQ ID NO:21; IQ Products (antibody, V domains shown)
VH: DVQLQESGPGLVKPSQSLSLTCTVTGYSITSDYAWNWIRQFPGNKLEWMGYITYSGITNYNPSLKSQISITRDTSKNQFFLQLNSVTTEDTATYYCVSGTYYFDYWGQGTTLTVSS
VL: SVVMTQTPKSLLISIGDRVTITCKASQSVSSDVAWFQQKPGQSPKPLIYYASNRYTGVPDRFTGSGYGTDFTFTISSVQAEDLAVYFCGQDYTSPRTFGGGTKLEIKRA
modifications: Mac2-158 VH sequence; Mac2-158 VL sequence
notes: IQ Products
- affinity for human CD163, KN2/NRY compared with Mac2-158 [1]: Virtually similar affinities
- effect on macrophages [2]: no effect different from buffer
